We go through 2 molecules from article doi:10.64898/2025.12.15.690641.

The target in this series is T1, CsubMADS1 (Coccomyxa subellipsoidea C-169, UniProt I0YWG3 1-102).
T1 sequence: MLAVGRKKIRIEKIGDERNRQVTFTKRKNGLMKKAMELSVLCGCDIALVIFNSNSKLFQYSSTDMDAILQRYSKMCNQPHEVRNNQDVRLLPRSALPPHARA
The experiment in a line: EMSA. Background: Mobility shift assays separate free from complexed probe on a gel.

B1: CAB24 CArG probe (dsDNA)
DNA 1: AATTCATCGATCGTTTACAAAAAAAAGAAATATCGATCGG
DNA 2: CCGATCGATATTTCTTTTTTTTGTAAACGATCGATGAATT
With B1, the binding result is on record as “binds”.

B2: CAB8 CArG probe (dsDNA)
DNA 1: AATTCATCGATCGTTTACTTTTTTTAGAAATATCGATCGG
DNA 2: CCGATCGATATTTCTAAAAAAAGTAAACGATCGATGAATT
For B2, the binding result is recorded as “binds”.
